To fix the notation:
B4: 4-subunit middle module complex Med7/10/21/31-His6 (complex)
chain 1: MSNDPGNEVSSLYPPPPPYVKFFTQSNLEKLPKYKEKKAASAKQTAPNNSNGGSEEEITCALDYLIPPPMPKNQQYRAFGSIWQVKDQLPDLESMGLTQLYKKSTENESTNYQYKIQELRKLLKSLLLNYLELIGVLSINPDMYERKVENIRTILVNIHHLLNEYRPHQSRESLIMLLEEQLEYKRGEIREIEQVCKQVHDKLTSIQDTLRTGSQSPPSSSQ
chain 2: MNGNSTNNEQLQQELATTQDQVASIIESFVELGVSIYDFPGTPEATKGMITNLQRNVDRLYKLNVRSNDPQSSLSKVDIPLEVVQYIEDGRNPDIYTREFVEAIRRSNQYQRGKMHGLKQLRDSLADKIVDEFPELKEPVEDIIKRTSPIDNVSNTH
chain 3: MTDRLTQLQICLDQMTEQFCATLNYIDKNHGFERLTVNEPQMSDKHATVVPPEEFSNTIDELSTDIILKTRQINKLIDSLPGVDVSAEEQLRKIDMLQKKLVEVEDEKIEAIKKKEKLLRHVDSLIEDFVDGIANSKKST
chain 4: […]
B6: Med7 (recombinant) (natural protein)
chain: MSNDPGNEVSSLYPPPPPYVKFFTQSNLEKLPKYKEKKAASAKQTAPNNSNGGSEEEITCALDYLIPPPMPKNQQYRAFGSIWQVKDQLPDLESMGLTQLYKKSTENESTNYQYKIQELRKLLKSLLLNYLELIGVLSINPDMYERKVENIRTILVNIHHLLNEYRPHQSRESLIMLLEEQLEYKRGEIREIEQVCKQVHDKLTSIQDTLRTGSQSPPSSSQ

The target in data set [1] is T1, Med4 (recombinant) (S. cerevisiae, UniProt Q12343 1-284).
T1 sequence: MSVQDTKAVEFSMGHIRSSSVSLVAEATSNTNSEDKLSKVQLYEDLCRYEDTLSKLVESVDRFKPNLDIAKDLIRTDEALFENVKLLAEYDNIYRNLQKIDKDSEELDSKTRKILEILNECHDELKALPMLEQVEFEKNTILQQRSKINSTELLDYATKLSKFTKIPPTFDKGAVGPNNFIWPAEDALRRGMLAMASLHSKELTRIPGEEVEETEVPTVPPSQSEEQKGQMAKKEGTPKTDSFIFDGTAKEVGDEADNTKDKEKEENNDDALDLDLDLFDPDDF
Nature of the data set: copurification after coexpression.

Data set [2] concerns the target B4. Kind of data set: native MS.
The data set “native MS” deals with the molecule itself. Kind of data set: native MS.
The data set “Med7 (recombinant)” has as its target B6. Kind of data set: native MS.
Data set [3] deals with T1, Med4 (recombinant). Kind of data set: native MS.
The target in data set [4] is 6-subunit complex Med4/7/9/10/21/31 of the coexpressed 7-subunit middle module (S. cerevisiae, UniProt Q12343;Q08278;P33308;Q06213;P47822;P38633). Kind of data set: native MS.

B1: Med9 (recombinant) (natural protein)
chain: MNLQNNVLNQIHQILLPTNPTLDKPNAEATKEEFSSAENRDEKDYLTNQQPKNLSTPSTSSNGEFIPHIFYSLHQIRKDPNNLSNQLETLTGSIRHRLKLCKSLISENEDTKDLLSKSPSEWQDIIHQREQELQIKRDVLDDLYRKLQR
For the molecule B1, the binding result with Med4 (recombinant) [1] was “binds”.

B2: Med4/9 heterodimer (complex)
chain 1: MSVQDTKAVEFSMGHIRSSSVSLVAEATSNTNSEDKLSKVQLYEDLCRYEDTLSKLVESVDRFKPNLDIAKDLIRTDEALFENVKLLAEYDNIYRNLQKIDKDSEELDSKTRKILEILNECHDELKALPMLEQVEFEKNTILQQRSKINSTELLDYATKLSKFTKIPPTFDKGAVGPNNFIWPAEDALRRGMLAMASLHSKELTRIPGEEVEETEVPTVPPSQSEEQKGQMAKKEGTPKTDSFIFDGTAKEVGDEADNTKDKEKEENNDDALDLDLDLFDPDDF
chain 2: MNLQNNVLNQIHQILLPTNPTLDKPNAEATKEEFSSAENRDEKDYLTNQQPKNLSTPSTSSNGEFIPHIFYSLHQIRKDPNNLSNQLETLTGSIRHRLKLCKSLISENEDTKDLLSKSPSEWQDIIHQREQELQIKRDVLDDLYRKLQR
A word on the stoichiometry N: it is a count of units in the complex or per binding partner. For the molecule B2, the “stoichiometry N” value in data set [2] was determined as 1.

B3: 6-subunit middle module complex Med4/7/9/10/21/31 (complex)
chain 1: MSVQDTKAVEFSMGHIRSSSVSLVAEATSNTNSEDKLSKVQLYEDLCRYEDTLSKLVESVDRFKPNLDIAKDLIRTDEALFENVKLLAEYDNIYRNLQKIDKDSEELDSKTRKILEILNECHDELKALPMLEQVEFEKNTILQQRSKINSTELLDYATKLSKFTKIPPTFDKGAVGPNNFIWPAEDALRRGMLAMASLHSKELTRIPGEEVEETEVPTVPPSQSEEQKGQMAKKEGTPKTDSFIFDGTAKEVGDEADNTKDKEKEENNDDALDLDLDLFDPDDF
chain 2: MSNDPGNEVSSLYPPPPPYVKFFTQSNLEKLPKYKEKKAASAKQTAPNNSNGGSEEEITCALDYLIPPPMPKNQQYRAFGSIWQVKDQLPDLESMGLTQLYKKSTENESTNYQYKIQELRKLLKSLLLNYLELIGVLSINPDMYERKVENIRTILVNIHHLLNEYRPHQSRESLIMLLEEQLEYKRGEIREIEQVCKQVHDKLTSIQDTLRTGSQSPPSSSQ
chain 3: MNLQNNVLNQIHQILLPTNPTLDKPNAEATKEEFSSAENRDEKDYLTNQQPKNLSTPSTSSNGEFIPHIFYSLHQIRKDPNNLSNQLETLTGSIRHRLKLCKSLISENEDTKDLLSKSPSEWQDIIHQREQELQIKRDVLDDLYRKLQR
chain 4: MNGNSTNNEQLQQELATTQDQVASIIESFVELGVSIYDFPGTPEATKGMITNLQRNVDRLYKLNVRSNDPQSSLSKVDIPLEVVQYIEDGRNPDIYTREFVEAIRRSNQYQRGKMHGLKQLRDSLADKIVDEFPELKEPVEDIIKRTSPIDNVSNTH
chain 5: MTDRLTQLQICLDQMTEQFCATLNYIDKNHGFERLTVNEPQMSDKHATVVPPEEFSNTIDELSTDIILKTRQINKLIDSLPGVDVSAEEQLRKIDMLQKKLVEVEDEKIEAIKKKEKLLRHVDSLIEDFVDGIANSKKST
chain 6: […]
As for B3, the “stoichiometry N” value in the data set “native MS” was found to be 2. As to B4, the “stoichiometry N” value in “native MS” was 2.

B5: Med10 (recombinant) (natural protein)
chain: MNGNSTNNEQLQQELATTQDQVASIIESFVELGVSIYDFPGTPEATKGMITNLQRNVDRLYKLNVRSNDPQSSLSKVDIPLEVVQYIEDGRNPDIYTREFVEAIRRSNQYQRGKMHGLKQLRDSLADKIVDEFPELKEPVEDIIKRTSPIDNVSNTH
For B5, the binding result with Med7 (recombinant) is reported as “binds”. With B6, the binding result in the data set with Med4 (recombinant) [3] is listed as “binds”.

B7: Med21 (recombinant) (natural protein)
chain: MTDRLTQLQICLDQMTEQFCATLNYIDKNHGFERLTVNEPQMSDKHATVVPPEEFSNTIDELSTDIILKTRQINKLIDSLPGVDVSAEEQLRKIDMLQKKLVEVEDEKIEAIKKKEKLLRHVDSLIEDFVDGIANSKKST
Regarding B7, the binding result in the data set with Med7 (recombinant) is “binds”.

B8: StrepII-tagged Med1 (natural protein)
chain: MVEGDSYVETLDSMIELFKDYKPGSITLENITRLCQTLGLESFTEELSNELSRLSTASKIIVIDVDYNKKQDRIQDVKLVLASNFDNFDYFNQRDGEHEKSNILLNSLTKYPDLKAFHNNLKFLYLLDAYSHIESDSTSHNNGSSDKSLDSSNASFNNQGKLDLFKYFTELSHYIRQCFQDNCCDFKVRTNLNDKFGIYILTQGINGKEVPLAKIYLEENKSDSQYRFYEYIYSQETKSWINESAENFSNGISLVMEIVANAKESNYTDLIWFPEDFISPELIIDKVTCSSNSSSSPPIIDLFSNNNYNSRIQLMNDFTTKLINIKKFDISNDNLDLISEILKWVQWSRIVLQNVFKLVSTPSSNSNSSELEPDYQAPFSTSTKDKNSSTSNTEPIPRSNRHGSVVEASRRRRSSTNKSKRPSITEAMMLKEEGLQQFNLHEILSEPAIEEENGDSIKEHSTTMDGANDLGFTASVSNQENAGTDIVMEDHGVLQGTSQNYGTATADDADIEMKDVSSKPSKPESSVLQLIVSEDHIILDTISECNLYDDVKCWSKFIEKFQDIVS
Turning to B8, in data set [4], the “stoichiometry N” value was 1.

The values above are taken from publication PMC2879511 (Nucleic Acids Research, 2010).
